Results as given in article PMC9765508, “Metabolic Promiscuity of an Orphan Small Alarmone Hydrolase Facilitates Bacterial Environmental Adaptation” (mBio, 2022).

Key:
[1] = molecular target: T1, B. subtilis Rel (Bacillus subtilis, UniProt O54408); assay: […]-labelled nucleotide hydrolysis, TLC; assay type: biochemical; settings: 20 mM Tris-HCl pH 7.5, 1 mM MnCl2, 37 °C, 240 nM enzyme; labelled compound
T1 construct: gene relA; purified; construct and tag not described

[2] = system: Nc1ncnc2c1ncn2[C@@H]1O[C@H](COP(=O)(O)OP(=O)(O)OP(=O)(O)O)[C@@H](OP(=O)(O)OP(=O)(O)O)[C@H]1O; assay: purified protein; assay type: biochemical, Xanthomonas campestris; settings: 20 mM Tris-HCl pH 7.5, 1 mM MnCl2, 37 °C, 25 nM enzyme
[3] = system: Nc1nc2c(ncn2[C@@H]2O[C@H](COP(=O)(O)OP(=O)(O)OP(=O)(O)O)[C@@H](OP(=O)(O)OP(=O)(O)O)[C@H]2O)c(=O)[nH]1; assay: purified protein; assay type: biochemical, Xanthomonas campestris; settings: 20 mM Tris-HCl pH 7.5, 1 mM MnCl2, 37 °C, 50 nM enzyme
[4] = system: Nc1nc2c(ncn2[C@@H]2O[C@H](COP(=O)(O)O)[C@@H](OP(=O)(O)OP(=O)(O)O)[C@H]2O)c(=O)[nH]1; assay: purified protein; assay type: biochemical, Xanthomonas campestris; settings: 20 mM Tris-HCl pH 7.5, 1 mM MnCl2, 37 °C, 50 nM enzyme
[5] = system: Nc1nc2c(ncn2[C@@H]2O[C@H](COP(=O)(O)OP(=O)(O)O)[C@@H](OP(=O)(O)OP(=O)(O)O)[C@H]2O)c(=O)[nH]1; assay: purified protein; assay type: biochemical, Xanthomonas campestris; settings: 20 mM Tris-HCl pH 7.5, 1 mM MnCl2, 37 °C, 50 nM enzyme
[6] = substrate: NC(=O)C1=CN([C@@H]2O[C@H](COP(=O)(O)OP(=O)(O)OC[C@H]3O[C@@H](n4cnc5c(N)ncnc54)[C@H](OP(=O)(O)O)[C@@H]3O)[C@@H](O)[C@H]2O)C=CC1; assay: phosphate release, malachite green assay, Michaelis-Menten fit; assay type: biochemical, Xanthomonas campestris; settings: 20 mM Tris-HCl pH 8, 1 mM MnCl2, 37 °C, 1 μM enzyme
Text: phosphate release, malachite green assay, Michaelis-Menten fit on XccSAH

T1 sequence (O54408 whole entry): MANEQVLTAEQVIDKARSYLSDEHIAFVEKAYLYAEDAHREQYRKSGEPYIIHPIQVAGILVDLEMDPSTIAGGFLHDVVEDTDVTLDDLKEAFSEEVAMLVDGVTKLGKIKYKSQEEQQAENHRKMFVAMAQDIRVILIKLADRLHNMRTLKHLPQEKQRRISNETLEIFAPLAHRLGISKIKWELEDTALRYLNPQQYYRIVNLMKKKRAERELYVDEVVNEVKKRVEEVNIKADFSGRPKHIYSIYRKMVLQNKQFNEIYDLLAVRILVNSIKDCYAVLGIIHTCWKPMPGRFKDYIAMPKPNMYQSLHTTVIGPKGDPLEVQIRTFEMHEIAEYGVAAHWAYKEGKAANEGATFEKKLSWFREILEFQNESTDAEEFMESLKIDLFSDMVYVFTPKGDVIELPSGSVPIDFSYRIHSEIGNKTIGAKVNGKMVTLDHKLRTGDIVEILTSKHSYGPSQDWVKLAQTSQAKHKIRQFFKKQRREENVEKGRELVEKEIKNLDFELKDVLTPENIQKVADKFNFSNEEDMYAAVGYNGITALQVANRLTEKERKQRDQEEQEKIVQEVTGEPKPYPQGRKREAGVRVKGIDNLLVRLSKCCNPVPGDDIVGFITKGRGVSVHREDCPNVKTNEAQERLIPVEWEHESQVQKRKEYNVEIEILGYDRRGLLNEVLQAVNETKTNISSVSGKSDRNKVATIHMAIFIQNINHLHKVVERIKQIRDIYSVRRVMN

`Nc1nc2c(ncn2[C@@H]2O[C@H](COP(=O)(O)O)[C@@H](OP(=O)(O)OP(=O)(O)O)[C@H]2O)c(=O)[nH]1` [pGpp] was tested, and the “32P-labelled nucleotide hydrolysis, TLC” value [1] was “We found that B. subtilis Rel could also hydrolyze pGpp to GMP”.

In the case of “XccSAH (Xanthomonas campestris pv. campestris str. ATCC 33913)”, the Km [2] is reported as 45.82 ± 3.87 µM, the Vmax [2] is reported as 73.1 µM/min and the kcat [2] is reported as 48.8 ± 2.99 s⁻¹. It also gave a kcat/Km [2] of 1.07e+06 ± 75000 M⁻¹ s⁻¹, a Km [3] of 29.14 ± 4.41 µM and a Vmax [3] of 42.9 µM/min. It also gave a kcat [3] of 14.3 ± 1.45 s⁻¹, a kcat/Km [3] of 493000 ± 25000 M⁻¹ s⁻¹ and a Km [4] of 19.73 ± 4.75 µM. For the same molecule, the Vmax [4] was 4.89 µM/min, the kcat [4] was 1.63 ± 0.07 s⁻¹ and the kcat/Km [4] was 86000 ± 18000 M⁻¹ s⁻¹. The Km [5] was 14.13 ± 2.02 µM, the Vmax [5] was 21 µM/min and the kcat [5] was 6.99 ± 0.15 s⁻¹. It also gave a kcat/Km [5] of 500000 ± 82000 M⁻¹ s⁻¹.

B1: XccSAH (Xanthomonas campestris pv. campestris str. ATCC 33913) (protein)
chain: MTALTERYAQAVDYARIAHAGQLRKGTQIPYLSHLLGVSTLVLECGGDEDQAIAGLLHDVVEDCGGGHEGSIRAQFGDAVADIVMACTDATAEDKADVDNTASARKRDWRERKQSYLAHLRKTPERALLVSGCDKLYNARTIVQDLENPDVGQEIFNVFTAGRDGTLWYYAALEEIFRTRKAATARLFSGVVARMQALADSSIDTVPAHAVA
In the case of B1, the Km [6] is reported as 132.2 ± 39.09 µM, the Vmax [6] is reported as 2.88 µM/min and the kcat [6] is reported as 0.048 ± 0.004 s⁻¹. It also gave a kcat/Km [6] of 363 ± 20 M⁻¹ s⁻¹.
